Experimental data taken from doi:10.1101/545814 (bioRxiv, 2019).
Numbering of substitutions follows the chain as printed. In names and notes the source's numbering stands.

T1: MBP-Epe1 (wild-type, recombinant, full length) (S. pombe, UniProt O94603 1-948)
T1 sequence: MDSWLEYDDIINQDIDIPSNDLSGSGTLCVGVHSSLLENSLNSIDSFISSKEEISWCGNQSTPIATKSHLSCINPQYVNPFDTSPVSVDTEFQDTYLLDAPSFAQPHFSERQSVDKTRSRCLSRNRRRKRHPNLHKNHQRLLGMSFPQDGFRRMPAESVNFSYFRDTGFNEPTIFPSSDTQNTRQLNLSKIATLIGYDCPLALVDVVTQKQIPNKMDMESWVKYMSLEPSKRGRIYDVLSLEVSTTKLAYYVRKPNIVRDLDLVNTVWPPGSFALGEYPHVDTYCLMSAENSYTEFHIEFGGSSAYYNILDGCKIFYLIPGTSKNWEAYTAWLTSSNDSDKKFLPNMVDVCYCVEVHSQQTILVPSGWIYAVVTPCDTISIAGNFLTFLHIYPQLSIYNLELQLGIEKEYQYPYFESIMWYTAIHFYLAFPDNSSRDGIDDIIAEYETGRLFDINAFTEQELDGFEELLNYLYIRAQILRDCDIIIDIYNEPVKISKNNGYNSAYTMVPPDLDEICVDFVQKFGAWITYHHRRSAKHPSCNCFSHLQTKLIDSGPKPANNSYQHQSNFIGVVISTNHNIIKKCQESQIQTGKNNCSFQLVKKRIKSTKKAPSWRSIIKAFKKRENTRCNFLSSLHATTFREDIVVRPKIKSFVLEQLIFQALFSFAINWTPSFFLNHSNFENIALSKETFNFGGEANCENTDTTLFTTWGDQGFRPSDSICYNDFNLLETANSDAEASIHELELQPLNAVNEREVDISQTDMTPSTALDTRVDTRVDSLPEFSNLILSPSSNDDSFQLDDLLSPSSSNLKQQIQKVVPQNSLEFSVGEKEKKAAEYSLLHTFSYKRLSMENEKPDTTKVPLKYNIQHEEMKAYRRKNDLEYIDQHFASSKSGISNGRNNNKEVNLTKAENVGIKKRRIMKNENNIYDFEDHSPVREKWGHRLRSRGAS

T2: MBP-Epe1^434-948 (S. pombe, UniProt O94603 434-948)
T2 sequence: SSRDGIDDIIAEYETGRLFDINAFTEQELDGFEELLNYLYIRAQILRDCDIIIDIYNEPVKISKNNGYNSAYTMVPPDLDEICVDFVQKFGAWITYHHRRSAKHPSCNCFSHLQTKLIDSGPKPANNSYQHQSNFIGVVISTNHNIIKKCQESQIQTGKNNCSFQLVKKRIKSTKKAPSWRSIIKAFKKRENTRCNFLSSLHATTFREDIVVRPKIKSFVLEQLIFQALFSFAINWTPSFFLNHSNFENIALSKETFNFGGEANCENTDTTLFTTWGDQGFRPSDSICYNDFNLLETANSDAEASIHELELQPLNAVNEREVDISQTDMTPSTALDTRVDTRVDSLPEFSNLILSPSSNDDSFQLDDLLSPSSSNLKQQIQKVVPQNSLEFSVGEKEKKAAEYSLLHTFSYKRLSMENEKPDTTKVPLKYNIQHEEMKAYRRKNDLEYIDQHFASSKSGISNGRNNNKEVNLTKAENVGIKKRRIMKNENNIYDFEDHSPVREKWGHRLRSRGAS

B1: 3X-FLAG Swi6^HP1 W104A (natural protein)
chain: MKKGGVRSYRRSSTSKRSVIDDDSEPELPSMTKEAIASHKADSGSSDNEVESDHESKSSSKKLKENAKEEEGGEEEEEDEYVVEKVLKHRMARKGGGYEYLLKAEGYDDPSDNTWSSEADCSGCKQLIEAYWNEHGGRPEPSKRKRTARPKKPEAKEPSPKSRKTDEDKHDKDSNEKIEDVNEKTIKFADKSQEEFNENGPPSGQPNGHIESDNESKSPSQKESNESEDIQIAETPSNVTPKKKPSPEVPKLPDNRELTVKQVENYDSWEDLVSSIDTIERKDDGTLEIYLTWKNGAISHHPSTITNKKCPQKMLQFYESHLTFRENE
B2: 3X FLAG-Swi6^HP1 (recombinant, E. coli) (natural protein)
chain: B1 chain with A104W
B3: 3X FLAG-Swi6^HP1 purified from fission yeast cells (natural protein)
chain: B1 chain with A104W
B4: MBP-Epe1^434-600 (domain or fragment)
chain: SSRDGIDDIIAEYETGRLFDINAFTEQELDGFEELLNYLYIRAQILRDCDIIIDIYNEPVKISKNNGYNSAYTMVPPDLDEICVDFVQKFGAWITYHHRRSAKHPSCNCFSHLQTKLIDSGPKPANNSYQHQSNFIGVVISTNHNIIKKCQESQIQTGKNNCSFQLV

Key:
Assay in all cases: pull-down
[1] = target: T1, MBP-Epe1 (wild-type, recombinant, full …)
[2] = target: T2, MBP-Epe1^434-948
[3] = target: B2

Binder: B1
- binding result [1]: binds

Binder: B2
- binding result [2]: binds
- binding result [1]: binds

Binder: B3
- binding result [1]: binds

Binder: B4
- binding result [3]: binds
